Test results taken from publication PMC9438803 (Life Science Alliance, 2021).

B1: human dock II domain, full-length fragment (RPA1 1060-1155) with C-terminal His-MBP-tag (domain or fragment, UniProt O95602 1060-1155, looked up)
chain: ADPKKALHHFRAIKKWQSKHPNTLLRRGAFLSYSQKIQEAVKALKLESENRNGRSPGTQEMLRMWYELDEESRRKYQKKAAACPDPSLSVWRPDIY
notes: human RPA1 residues 1060-1155, the dock II domain (HMG box-like foot insertion); The results call it MBP-dock II; the methods say that the His-MBP tag is C-terminal; also called full-length MBP-dock II; dock II-MBP fusion; source: E. coli BL21 (DE3) RIL, purified (Ni-NTA, Superdex 75); not shown: His, C-terminal, kept; MBP, C-terminal, kept
B2: EMSA-DNA 40 bp (dsDNA)
DNA 1: CTGGAACAACACTCAACCCTATCTCGGTCTATTCTTTTGA
DNA 2: TCAAAAGAATAGACCGAGATAGGGTTGAGTGTTGTTCCAG

Assays:
[1] = biological target: T1, recombinant human Topoisomerase 2a lacking the unstructured C-terminal domain (1-1,217) (human, UniProt P11388 1-1217); assay: mass spectrometry of bands cut from the native PAGE; unshifted and shifted Top2a bands of the blue-native gel analysed by mass spectrometry; conditions: both partners purified
T1 construct: human Topoisomerase 2a residues 1-1,217; A legend on the cited structures calls Top2a a homodimer; also called Top2a ΔC; Top2aΔCTD; source: recombinant, purified
T1 sequence (P11388 1-1217): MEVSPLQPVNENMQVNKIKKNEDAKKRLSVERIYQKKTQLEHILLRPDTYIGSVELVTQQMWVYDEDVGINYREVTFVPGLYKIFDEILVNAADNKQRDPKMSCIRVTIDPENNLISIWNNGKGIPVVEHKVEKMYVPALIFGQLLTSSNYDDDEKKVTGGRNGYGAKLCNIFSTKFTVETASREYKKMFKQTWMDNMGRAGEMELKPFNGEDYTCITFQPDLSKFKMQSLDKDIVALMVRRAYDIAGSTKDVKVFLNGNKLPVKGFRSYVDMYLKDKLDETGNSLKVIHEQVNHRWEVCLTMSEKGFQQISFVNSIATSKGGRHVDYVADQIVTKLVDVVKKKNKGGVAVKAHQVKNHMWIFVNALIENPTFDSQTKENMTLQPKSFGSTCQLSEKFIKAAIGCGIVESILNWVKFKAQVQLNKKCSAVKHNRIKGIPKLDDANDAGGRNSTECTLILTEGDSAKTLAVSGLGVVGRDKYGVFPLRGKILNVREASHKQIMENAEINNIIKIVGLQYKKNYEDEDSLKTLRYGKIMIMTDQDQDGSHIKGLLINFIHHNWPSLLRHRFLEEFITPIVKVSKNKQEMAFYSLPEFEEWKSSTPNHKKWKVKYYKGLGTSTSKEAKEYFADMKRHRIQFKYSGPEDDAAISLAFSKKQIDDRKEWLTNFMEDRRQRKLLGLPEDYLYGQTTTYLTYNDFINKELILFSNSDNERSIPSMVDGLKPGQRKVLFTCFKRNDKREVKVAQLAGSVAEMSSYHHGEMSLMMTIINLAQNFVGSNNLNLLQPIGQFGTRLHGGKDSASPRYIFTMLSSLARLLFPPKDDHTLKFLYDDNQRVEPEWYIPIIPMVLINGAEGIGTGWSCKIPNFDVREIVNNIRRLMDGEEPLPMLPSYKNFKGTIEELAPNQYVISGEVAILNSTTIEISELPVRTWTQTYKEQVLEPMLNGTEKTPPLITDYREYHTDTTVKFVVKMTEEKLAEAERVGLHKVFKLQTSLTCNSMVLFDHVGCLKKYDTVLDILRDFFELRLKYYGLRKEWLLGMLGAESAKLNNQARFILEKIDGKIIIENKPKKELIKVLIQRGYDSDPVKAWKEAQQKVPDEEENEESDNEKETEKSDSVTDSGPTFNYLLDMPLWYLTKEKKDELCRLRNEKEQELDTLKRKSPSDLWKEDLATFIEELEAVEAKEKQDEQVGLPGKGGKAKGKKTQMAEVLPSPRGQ

[2] = biological target: RPA49/RPA34 heterodimer full length (Homo sapiens, UniProt Q9GZS1;O15446 1-419;1-510); assay: EMSA; EMSA: 100 fmol DNA, up to 50x protein, RT 30 min; buffer 1: 10 mM Tris pH 7.5, 50 mM NaCl, 1 mM MgCl2, 4% glycerol, 0.5 mM EDTA, 0.5 mM DTT; or buffer 2: 20 mM; conditions: protein: recombinant; tags: N-term 6xHis on RPA49; RPA34 untagged; copies: 1;1; label: 5'-Cy5 on strand 1; blunt
Chain of RPA49/RPA34 heterodimer full length (Q9GZS1 whole entry, chain 1 of 2): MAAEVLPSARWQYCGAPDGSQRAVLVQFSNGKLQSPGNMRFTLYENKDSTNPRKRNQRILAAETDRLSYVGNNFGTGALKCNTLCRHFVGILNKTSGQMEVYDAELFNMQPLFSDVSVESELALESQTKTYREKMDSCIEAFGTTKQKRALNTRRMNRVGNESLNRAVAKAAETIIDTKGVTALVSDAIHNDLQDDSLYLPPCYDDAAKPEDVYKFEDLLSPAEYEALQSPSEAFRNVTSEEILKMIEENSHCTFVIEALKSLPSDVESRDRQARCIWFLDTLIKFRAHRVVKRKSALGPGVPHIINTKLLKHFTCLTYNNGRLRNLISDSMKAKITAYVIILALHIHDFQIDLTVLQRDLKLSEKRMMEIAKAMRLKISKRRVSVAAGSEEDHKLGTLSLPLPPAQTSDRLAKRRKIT
Chain of RPA49/RPA34 heterodimer full length (O15446 whole entry, chain 2 of 2): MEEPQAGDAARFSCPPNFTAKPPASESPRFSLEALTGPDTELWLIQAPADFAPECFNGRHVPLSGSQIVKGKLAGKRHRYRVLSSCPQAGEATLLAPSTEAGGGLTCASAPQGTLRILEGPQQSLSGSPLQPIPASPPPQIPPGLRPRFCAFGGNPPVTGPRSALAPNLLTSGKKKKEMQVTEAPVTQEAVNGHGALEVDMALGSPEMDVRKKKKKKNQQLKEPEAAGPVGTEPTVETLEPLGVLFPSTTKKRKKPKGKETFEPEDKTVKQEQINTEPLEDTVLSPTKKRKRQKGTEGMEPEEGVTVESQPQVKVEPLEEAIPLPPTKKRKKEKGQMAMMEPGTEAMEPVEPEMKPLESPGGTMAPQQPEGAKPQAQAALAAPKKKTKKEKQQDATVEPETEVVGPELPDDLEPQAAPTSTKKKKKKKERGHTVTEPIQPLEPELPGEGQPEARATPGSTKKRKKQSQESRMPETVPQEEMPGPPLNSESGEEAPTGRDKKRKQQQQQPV

[3] = biological target: dock II minimal (Homo sapiens, UniProt O95602 1081-1146); assay: EMSA; up to 50x protein excess; no major DNA binding; EMSA: 100 fmol DNA, up to 50x protein, RT 30 min; buffer 1: 10 mM Tris pH 7.5, 50 mM NaCl, 1 mM MgCl2, 4% glycerol, 0.5 mM EDTA, 0.5 mM DTT; or buffer 2: 20 mM; conditions: protein: recombinant; tags: C-term His-MBP; label: 5'-Cy5 on strand 1; blunt

Binder | binding result [1] | binding result [2] | binding result [3]
B1 | binds | – | –
B2 | – | binds | no binding
